Laboratory results taken from patent US5158935A, “Human epidermal growth factor having substitution at position 11” (Chiron Corporation, priority 1989, dated 1992).

Assays:
[1] = forms isolated from recombinant yeast culture; cited from earlier work
[2] = citrate buffer, pH 3, 45° C.
Description: Solutions of rhEGF and rhEGF-Glu11 were prepared in citrate buffer, pH 3, and were maintained at 45° C. Aliquots were drawn on days 0, 1, 7, and 15, and were analyzed by RP-HPLC (as described in Example 2).

[3] = stored as a lyophilized powder; cited from earlier work

Molecule	EGF activity [1]	degradation products versus original protein by RP-HPLC ([2]; by day 15)	degradation seen in RP-HPLC chromatograms ([2]; days 0, 1, 7 and 15)	stability on storage [3]
EGF-B: EGF-D wherein the C-terminal arg-leu has been removed (NSDSECPLSHDGYCLHDGVCMYIEALDKYACNCVVGYIGERCQYRDLKWWE; not fully specified; Epidermal growth factor; UniProt P01133 971-1021, looked up, fragment)	full EGF activity			
CC[C@H](C)[C@@H]1NC(=O)[C@H](Cc2ccc(O)cc2)NC(=O)CNC(=O)[C@H](C(C)C)NC(=O)[C@H](C(C)C)NC(=O)[C@@H](NC(=O)[C@H](CC(N)=O)NC(=O)[C@@H]2CSSC[C@@H]3NC(=O)[C@H](Cc4ccc(O)cc4)NC(=O)CNC(=O)[C@H](CC(=O)O)NC(=O)[C@H](Cc4c[nH]cn4)NC(=O)[C@H](CO)NC(=O)[C@H](CC(C)C)NC(=O)[C@@H]4CCCN4C(=O)[C@@H](NC(=O)[C@H](CCC(=O)O)NC(=O)[C@H](CO)NC(=O)[C@H](CC(=O)O)NC(=O)[C@H](CO)NC(=O)[C@@H](N)CC(N)=O)CSSC[C@H](NC(=O)[C@H](C(C)C)NC(=O)CNC(=O)[C@H](CC(=O)O)NC(=O)[C@H](Cc4c[nH]cn4)NC(=O)[C@H](CC(C)C)NC3=O)C(=O)N[C@@H](CCSC)C(=O)N[C@@H](Cc3ccc(O)cc3)C(=O)N[C@@H]([C@@H](C)CC)C(=O)N[C@@H](CCC(=O)O)C(=O)N[C@@H](C)C(=O)N[C@@H](CC(C)C)C(=O)N[C@@H](CC(=O)O)C(=O)N[C@@H](CCCCN)C(=O)N[C@@H](Cc3ccc(O)cc3)C(=O)N[C@@H](C)C(=O)N2)CSSC[C@@H](C(=O)N[C@@H](CCC(N)=O)C(=O)N[C@@H](Cc2ccc(O)cc2)C(=O)N[C@@H](CCCNC(=N)N)C(=O)N[C@@H](CC(=O)O)C(=O)N[C@@H](CC(C)C)C(=O)N[C@@H](CCCCN)C(=O)N[C@@H](Cc2c[nH]c3ccccc23)C(=O)N[C@@H](Cc2c[nH]c3ccccc23)C(=O)N[C@@H](CCC(=O)O)C(=O)N[C@@H](CC(C)C)C(=O)N[C@@H](CCCNC(=N)N)C(=O)O)NC(=O)[C@H](CCCNC(=N)N)NC(=O)[C@H](CCC(=O)O)NC(=O)CNC1=O [EGF-Asp11]		the degradation products outweighed the original rhEGF	rapidly degraded to rhEGF-isoaspartyl11	
EGF-D: 52-amino acid sequence obtained by removing the C-terminal arg of EGF (NSDSECPLSHDGYCLHDGVCMYIEALDKYACNCVVGYIGERCQYRDLKWWEL; not fully specified; Epidermal growth factor; UniProt P01133 971-1022, looked up, fragment)	full EGF activity			stable
